From article doi:10.1101/2024.02.12.579695
Values belong to the molecule of their own block, whether it stands above or below them.

How the values were obtained:
[1] = molecular target: truncated DR2539 (DR2539tr, residues 4-142) (Deinococcus radiodurans); test: SAXS
[2] = molecular target: DR2539 full length (Deinococcus radiodurans); test: SEC
[3] = molecular target: DR2539 full length (Deinococcus radiodurans); test: SAXS
[4] = molecular target: T1, DR2539 full length (Deinococcus radiodurans, UniProt Q9RRF3 1-232); test: EMSA
T1 sequence: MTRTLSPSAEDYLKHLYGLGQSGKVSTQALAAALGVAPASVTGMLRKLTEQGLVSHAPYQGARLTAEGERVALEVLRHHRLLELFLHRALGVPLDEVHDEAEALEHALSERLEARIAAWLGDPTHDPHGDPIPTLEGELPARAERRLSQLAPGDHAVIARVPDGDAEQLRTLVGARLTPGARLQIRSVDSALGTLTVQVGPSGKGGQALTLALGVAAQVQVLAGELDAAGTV

stoichiometry N [1]: 2
Molecule: truncated DR2539 (DR2539tr, residues 4-142) (domain or fragment)

stoichiometry N [2]: 2 | stoichiometry N [3]: 2
Molecule: DR2539 full length (natural protein)

B1: dr1709p_wt (dsDNA)
DNA 1: ATTTTAGTCGCGCCTAAAATA
DNA 2: TATTTTAGGCGCGACTAAAAT
binding result [4]: binds
